The source of these data is patent US8822165B2, “Method for producing cAMP using chimeric olfactory receptor” (Panasonic Corporation, priority 2010, dated 2014).

In test [1] the test system is HEK293T cells. Description: cAMP production by mOREG-derived receptors expressed in HEK293T cells, eugenol as agonist (Experiment 1). Format: cell-based. The method, then: Subsequently, the HEK293T cells were transfected with the above-mentioned three plasmids by a lipofection method. The HEK293T cells were incubated for 48 hours, and the β1AR consisting of the protein represented by SEQ ID NO: 03 was expressed on the cell membrane of the HEK293T cell.
The abbreviation “IBMX” means 3-isobutyl-1-methylxanthine. The IBMX is one of the phosphodiesterase inhibitors. The IBMX stabilizes cAMP, which is unstable.
The expression was conducted similarly to that of the step 2 of the reference example 1 except that the plasmid (Rho-mOREG) was used instead of the plasmid (β1AR). In this way, the Rho-mOREG (SEQ ID NO: 34) was expressed on a cell membrane.
Based on the measured cAMP concentration, a concentration increase value was calculated in accordance with the following equation: (Concentration increase value)=(the cAMP concentration measured when the concentration of the eugenol was 300μM)−(the cAMP concentration measured when the concentration of the eugenol was 0 μM)
For orientation: cAMP levels reflect the balance of adenylyl cyclase and phosphodiesterase activity.

The test system of test [2] is HEK293T cells. Described as above. Format: cell-based. The source holds these as a separate data set.

B1: chimera2: EC1-IC1 domains of the β1AR, TM2-TM7 domains of the mOREG, IC4 domain of the β1AR (protein)
chain: MGAGALALGASEPCNLSSAAPLPDGAATAARLLVLASPPASLLPPASEGSAPLSQQWTAGMGLLLALIVLLIVVGNVLVIVAIAKTPRLQTLTNLTRPMYFFLSHLSFVDFCYSSIVAPKMLVNLVTMNRGISFVGCLVQFFFFCTFVVTESFLLGVMAYDRFVAIRNPLLYTVAMSQRLCAMLVLGSYAWGVVCSLILTCSALNLSFYGFNMINHFFCEFSSLLSLSRSDTSVSQLLLFVFATFNEISTLLIILLSYVLIVVTILKMKSASGRRKAFSTCASHLTAITIFHGTILFLYCVPNSKNSRHTVKVASVFYTVVIPMLNPLIYSLRNKSRDFRKAFQRLLCCARRAACRRRAAHGDRPRASGCLARAGPPPSPGAPSDDDDDDAGATPPARLLEPWAGCNGGTTTVDSDSSLDEPGRQGFSSESKV
modifications: chimera 2
With B1, the “concentration increase value of the cAMP” value in test [1] (eugenol 300 μM minus eugenol 0 μM) is 0.0002 pmol/microgram.

B2: chimera1: IC4 domain of the Rho-myc-mOREG is substituted with the IC4 domain of the beta-1 adrenergic receptor (protein)
chain: MNGTEGPNFYVPFSNKTGVVEQKLISEEDLEFMTLSDGNHSGAVFTLLGFSDYPELTIPLFLIFLTIYSITVVGNIGMIVIIRINPKLHIPMYFFLSHLSFVDFCYSSIVAPKMLVNLVTMNRGISFVGCLVQFFFFCTFVVTESFLLGVMAYDRFVAIRNPLLYTVAMSQRLCAMLVLGSYAWGVVCSLILTCSALNLSFYGFNMINHFFCEFSSLLSLSRSDTSVSQLLLFVFATFNEISTLLIILLSYVLIVVTILKMKSASGRRKAFSTCASHLTAITIFHGTILFLYCVPNSKNSRHTVKVASVFYTVVIPMLNPLIYSLRNKDFRKAFQRLLCCARRAACRRRAAHGDRPRASGCLARAGPPPSPGAPSDDDDDDAGATPPARLLEPWAGCNGGTTTVDSDSSLDEPGRQGFSSESKV
modifications: chimera 1
notes: IC4 domain of the Rho-myc-mOREG is substituted with the IC4 domain of the beta-1 adrenergic receptor
On to B2, for which the “concentration increase value of the cAMP” value in test [1] (eugenol 300 μM (Table 5)) was determined as 0.018; in test [2] (eugenol 30 μM), 0.0065; in test [2] (eugenol 1000 μM), 0.031. Also, the “concentration increase value compared with the other olfactory receptors derived from the mOREG (in words)” value in test [1] (eugenol 300 μM, Table 4) is “much greater”. The “concentration increase value of the cAMP compared with the other olfactory receptors (in words)” value in test [2] (regardless of the concentration of eugenol, Table 5) is given as “greater”.

B3: Rho-myc-mOREG: mouse olfactory receptor for eugenol with N-terminal Rho tag and myc epitope tag (protein)
chain: MNGTEGPNFYVPFSNKTGVVEQKLISEEDLEFMTLSDGNHSGAVFTLLGFSDYPELTIPLFLIFLTIYSITVVGNIGMIVIIRINPKLHIPMYFFLSHLSFVDFCYSSIVAPKMLVNLVTMNRGISFVGCLVQFFFFCTFVVTESFLLGVMAYDRFVAIRNPLLYTVAMSQRLCAMLVLGSYAWGVVCSLILTCSALNLSFYGFNMINHFFCEFSSLLSLSRSDTSVSQLLLFVFATFNEISTLLIILLSYVLIVVTILKMKSASGRRKAFSTCASHLTAITIFHGTILFLYCVPNSKNSRHTVKVASVFYTVVIPMLNPLIYSLRNKDVKDTVKKIIGTKVYSS
modifications: Rho-myc-mOREG
Take B3: the “concentration increase value of the cAMP” value in test [1] (eugenol 300 μM (Table 5)) is listed as 0.0060; in test [2] (eugenol 30 μM) it was 0.0028; in test [2] (eugenol 1000 μM) it was 0.0190.

B4: Rho-mOREG: mouse olfactory receptor for eugenol with N-terminal Rho tag (protein)
chain: MNGTEGPNFYVPFSNKTGVVMTLSDGNHSGAVFTLLGFSDYPELTIPLFLIFLTIYSITVVGNIGMIVIIRINPKLHIPMYFFLSHLSFVDFCYSSIVAPKMLVNLVTMNRGISFVGCLVQFFFFCTFVVTESFLLGVMAYDRFVAIRNPLLYTVAMSQRLCAMLVLGSYAWGVVCSLILTCSALNLSFYGFNMINHFFCEFSSLLSLSRSDTSVSQLLLFVFATFNEISTLLIILLSYVLIVVTILKMKSASGRRKAFSTCASHLTAITIFHGTILFLYCVPNSKNSRHTVKVASVFYTVVIPMLNPLIYSLRNKDVKDTVKKIIGTKVYSS
modifications: Rho-mOREG
notes: mouse olfactory receptor for eugenol with N-terminal Rho tag
In test [1] (eugenol 0 μM), B4 yielded a cAMP concentration of 0.00633 pmol/µg. The “concentration increase value of the cAMP” value in test [1] (eugenol 300 μM (Table 5)) is given as 0.0018; in test [2] (eugenol 30 μM), 0.0012; in test [2] (eugenol 1000 μM), 0.0026.
